Experimental findings from paper PMC5121590, “Antibody-antigen kinetics constrain intracellular humoral immunity” (Scientific Reports, 2016) are described below.

Substitutions are numbered along the chain they refer to. Numbers in names are those of the source.

As usually defined, the Kd is a measure of binding affinity in units of concentration. The term koff denotes the first-order rate constant of dissociation. Broadly, the kon is the rate constant with which the complex forms.

First the molecules themselves.
B1: h9C12 Fab G32P (Fab, V domains shown)
VH: VQLKQSGPGLLQPSQRLSITCTVSGFSLGRYPVHWIRQSPGKGLEWLGVIWRGGTTDYNAVFMSRLSINKDDSKSQVFFTMNSLRPDDTAIYYCARQGSNFPLAYWGQGTLVTVSA
VL: NIVMTQTPKFLLVSIGDSITITCKASQSVTNDAAWYQKKPGQSPQLLIYQASTRYTGVPDRFSGSGYGTDFTFTISAVQAEDLAVYFCHQDYSSPLTFGAGTKLELK
notes: source: HEK293E, transiently co-transfected, purified (CaptureSelect CH1, SEC Superdex 75)
B2: h9C12 Fab Q97A/S99A/F101A/L103A (Fab, V domains shown)
VH: B1 VH with P32G, Q97A, S99A, F101A, L103A
VL: B1 VL
notes: also called combined alanine mutations in H3; source: HEK293E, transiently co-transfected, purified (CaptureSelect CH1, SEC Superdex 75)
B3: h9C12 Fab G98P (Fab, V domains shown)
VH: B1 VH with P32G, G98P
VL: B1 VL
notes: as for B1
B4: h9C12 Fab Q97R (Fab, V domains shown)
VH: B1 VH with P32G, Q97R
VL: B1 VL
notes: as for B1
B5: h9C12 Fab N100A (Fab, V domains shown)
VH: B1 VH with P32G, N100A
VL: B1 VL
notes: as for B1
B6: h9C12 Fab G29R/R30S (Fab, V domains shown)
VH: B1 VH with G29R, R30S, P32G
VL: B1 VL
notes: as for B1
B7: h9C12 Fab Q97A (Fab, V domains shown)
VH: B1 VH with P32G, Q97A
VL: B1 VL
notes: as for B1
B8: h9C12 Fab (wild type) (Fab, V domains shown)
VH: B1 VH with P32G
VL: B1 VL
notes: also called WT h9C12; humanized 9C12; source: HEK293E, transiently co-transfected, purified (CaptureSelect CH1, SEC Superdex 75)
B9: h9C12 Fab T55S (Fab, V domains shown)
VH: B1 VH with P32G, T55S
VL: B1 VL
notes: as for B1
B10: h9C12 Fab G98C/S99H (Fab, V domains shown)
VH: B1 VH with P32G, G98C, S99H
VL: B1 VL
notes: as for B1
B11: h9C12 Fab W51E (Fab, V domains shown)
VH: B1 VH with P32G, W51E
VL: B1 VL
notes: as for B1
B12: 9C12 Fab (original mouse format, SPR) (Fab, V domains shown)
VH: B1 VH with P32G
VL: B1 VL
notes: also called mouse WT 9C12; source: gene fragment synthesized as cDNA; host stated only for the h9C12 variants (HEK293E)
B13: h9C12 Fab G53P (Fab, V domains shown)
VH: B1 VH with P32G, G53P
VL: B1 VL
notes: as for B1
B14: recombinant humanized IgG1 version of 9C12 (h9C12), wild type (antibody, V domains shown)
VH: B1 VH with P32G
VL: B1 VL
B15: full-length Adv5 hexon protein (natural protein)
chain: MATPSMMPQWSYMHISGQDASEYLSPGLVQFARATETYFSLNNKFRNPTVAPTHDVTTDRSQRLTLRFIPVDREDTAYSYKARFTLAVGDNRVLDMASTYFDIRGVLDRGPTFKPYSGTAYNALAPKGAPNPCEWDEAATALEINLEEEDDDNEDEVDEQAEQQKTHVFGQAPYSGINITKEGIQIGVEGQTPKYADKTFQPEPQIGESQWYETEINHAAGRVLKKTTPMKPCYGSYAKPTNENGGQGILVKQQNGKLESQVEMQFFSTTEATAGNGDNLTPKVVLYSEDVDIETPDTHISYMPTIKEGNSRELMGQQSMPNRPNYIAFRDNFIGLMYYNSTGNMGVLAGQASQLNAVVDLQDRNTELSYQLLLDSIGDRTRYFSMWNQAVDSYDPDVRIIENHGTEDELPNYCFPLGGVINTETLTKVKPKTGQENGWEKDATEFSDKNEIRVGNNFAMEINLNANLWRNFLYSNIALYLPDKLKYSPSNVKISDNPNTYDYMNKRVVAPGLVDCYINLGARWSLDYMDNVNPFNHHRNAGLRYRSMLLGNGRYVPFHIQVPQKFFAIKNLLLLPGSYTYEWNFRKDVNMVLQSSLGNDLRVDGASIKFDSICLYATFFPMAHNTASTLEAMLRNDTNDQSFNDYLSAANMLYPIPANATNVPISIPSRNWAAFRGWAFTRLKTKETPSLGSGYDPYYTYSGSIPYLDGTFYLNHTFKKVAITFDSSVSWPGNDRLLTPNEFEIKRSVDGEGYNVAQCNMTKDWFLVQMLANYNIGYQGFYIPESYKDRMYSFFRNFQPMSRQVVDDTKYKDYQQVGILHQHNNSGFVGYLAPTMREGQAYPANFPYPLIGKTAVDSITQKKFLCDRTLWRIPFSSNFMSMGALTDLGQNLLYANSAHALDMTFEVDPMDEPTLLYVLFEVFDVVRVHRPHRGVIETVYLRTPFSAGNATT
notes: also called human adenovirus 5 hexon; source: purified from Adv5-infected cells (CsCl-gradient, size exclusion)

In the first data set the target is T1, recombinant AdV5 hexon protein (Human adenovirus C serotype 5 (HAdV-5), UniProt P04133).
T1 construct: source: bought: AbD Serotech
The experiment in a line: SPR. The note with it: both partners purified.
With B1, the binding result is recorded as “no binding”.
Take B2: the binding result is “no binding”.
For B3, the binding result is listed as “no binding”.
The same measure, in the same setting: then B4, with “no binding”.

A further data set addresses T1, recombinant AdV5 hexon protein. Put plainly: SPR. The note with it: both partners purified. This is another data set of the same source.
B5: the Kd was found to be 0.9 nM, the koff came to 0.00085 s⁻¹ and the kon worked out at 889000 M⁻¹ s⁻¹.
The corresponding values for B6 are 92.8 nM, 0.0049 s⁻¹ and 53000 M⁻¹ s⁻¹.
Take B7: the Kd was found to be 462 nM.
On to B8, for which the Kd was found to be 0.8 nM, the koff came out at 0.00052 s⁻¹ and the association rate constant (kon) stood at 635000 M⁻¹ s⁻¹.
The corresponding values for B9 are 1.2 nM, 0.00095 s⁻¹ and 795000 M⁻¹ s⁻¹.
Take B10: the Kd was 288 nM, the koff amounted to 0.0052 s⁻¹ and the kon came out at 18000 M⁻¹ s⁻¹.
Turning to B11, the Kd came to 16900 nM.
As to B12, the Kd was found to be 1 nM, the off-rate constant (koff) worked out at 0.00045 s⁻¹ and the kon was determined as 447000 M⁻¹ s⁻¹.
The matching figures for B13: 330 nM, 0.079 s⁻¹ and 239000 M⁻¹ s⁻¹.

The target is the same in another data set. The experiment in a line: cell-based or functional assay.
Conditions: not given
In the case of B14, the “neutralization of Adv5 infection in HEK293T cells” value is approximately 25 fold.

Another data set concerns the molecule itself. The experiment in a line: crystal structure; 9C12 Fab and hexon mixed 1:1 to a 5 mg/ml complex; crystals in 15% MPD, 5% PEG 4K, 0.1 M imidazole pH 8; 2.7 Å.
Conditions: not given
Take B15: the binding result is “binds”.
